Test: label from the status in PepcDB records
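Also: failed if final PepcDB status was selected cloned or expressed and not failed if soluble or beyond.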

MDVLPLLLLVAGSAAVAGAARRTPVPAPLLLVAAGLIASYIPGVPEYTLDPEVVLPLVLPPLLYTAASDSSYLDLRAQLRPVALLSIGYVLFATLVVGWAAYLLVPGLPLPAALVLGAVVAPPDAVAATAVARRVGLPSRITTILQGESLVNDATAITAYKVALAAAVGEGATWAHGVGEFLLAAVGGVAVGLLLMVPLHWLRTHLKEALLQNTLSLLIPFVAYGLAEWAHASGVLAVVVVALYLGHRNYEVDFATRLQEEAVWKMVAFVLESAVFALIGLQLQVVLKGLGEYRGVDAAWYAVAVFLVVVLARFVWVYPATFLPRLLSARIREREENPTWKAPFIIGWAGMRGVVSLAIAFSIPLTVHGQGKGPFPGRNLILFLTFTTVIGTLVVQGLTLPPLIRLLRLPGRDAQAETLAEANAQAQASRVAELRLNDLLDDERNALPPPLADRLRDVLERRRNAVWERLGAVNPVTGESVDDTYRRLSREMIAAERSVFVRLRNGRYIDDEMLRTLLRRLDLEEAAAFREAT
protein production: failed

MSENQKEVSPPQAISVKSEASSSIFSKPISTSSPAGLAAAQRVTPGKLSTLLLEMGPLAIRHITQTLCLDIPCFKDLSSSKQRRLIMSAMESGDKEKSVVFEKIGWGQWSAKRVDPANFDKELEATNFANAKVKDLISQESQRRKSNNSNSNSGGKVEMPMKVEHNITNIDGATTPPTAVASTTIPVNIKRSKSPLAAANVVYIDENALASEDEDEEFDEDDHHLHYQNKSRNSSNNFGKSSNGDPYSFGRRRSQVVFADSTPENIEHEIIAQKIRPLLRNRRRSSIKPHTPFISKLNTHQDSSYLSPNTTSTTTPSNNNSNSNQAKIDLEKLTATSEPTSRRASRLSVSKESSIRSTLFPNKNYLIVTTNPNSKATSVSTSPKLEEQMNVSSNPIVLSDKEKHRVASQHLNGESSPQLVPHSHHQPHSDTDEEDWESIGAASLRNNSLAPNIDSVASSTNGVVSPKPTNPSFTNSQNGDIEPPLQHDQQKHEQQPRNGEDNSAAFLLMSLKS
protein production: not failed

MHGHGGYDSDFSDDEHCGESSKRKKRTVEDDLLLQKPFQKEKHGKVAHKQVAAELLDREEARNRRFHLIAMDAYQRHRKFVNDYILYYGGKKEDFKRLGENDKTDLDVIRENHRFLWNEEDEMDMTWEKRLAKKYYDKLFKEYCIADLSKYKENKFGFRWRVEKEVISGKGQFFCGNKYCDKKEGLKSWEVNFGYIEHGEKRNALVKLRLCQECSIKLNFHHRRKEIKSKKRKDKTKKDCEESSHKKSRLSSAEEASKKKDKGHSSSKKSEDSLLRNSDEEESASESELWKGPLPETDEKSQEEEFDEYFQDLFL
protein production: not failed

MDITEKLRLITRNAEEVVTEEELRQLIETKEKPRAYVGYEPSGEIHLGHMMTVQKLMDLQEAGFEIIVLLADIHAYLNEKGTFEEIAEVADYNKKVFIALGLDESRAKFVLGSEYQLSRDYVLDVLKMARITTLNRARRSMDEVSRRKEDPMVSQMIYPLMQALDIAHLGVDLAVGGIDQRKIHMLARENLPRLGYSSPVCLHTPILVGLDGQKMSSSKGNYISVRDPPEEVERKIRKAYCPAGVVEENPILDIAKYHILPRFGKIVVERDAKFGGDVEYASFEELAEDFKSGQLHPLDLKIAVAKYLNMLLEDARKRLGVSV
protein production: not failed

MPSFRITRKVRHSATQMYDLVADIERYPEFLPLCESLRVLRDAEGPNGTTVRVAEMGVGYKAIRERFTTRVSLDRENRKIVAEYIDGPFRHLENRWSFRDAEGGGCEVDFFITYEFKSRTLGLLMGTMFDRAFRKFTDAFEGRATAIYGVPA
protein production: failed

MKKLTSLFPLLFLIPLLASCAEEKQVYIVYFGEHKGDKAFHEIEEHHHSYLQSVKESEEDARASLLYSYKHSINGFAAELTPDQASKLEKLAEVVSVFKSHPRKYEAHTTRSWEFVGLEEEETDSDVPRRKNDADDRFRVGRNFLKKAKHGDGIIVGVLDSGVWPESKSFNDKGMGPVPKSWKGICQTGVAFNSSHCNRKIIGARYYVKGYERYYGAFNATANKDFLSPRDPDGHGSHTASTAVGRRVLGASALGGFAKGSASGGAPLARLAIYKACWAKPNAEKVEGNICLEEDMLAAIDDAIADGVHVISISIGTTEPFPFTQDGIAMGALHAVKRNIVVAASAGNSGPKPGTLSNLAPWIITVGASTLDRAFVGGLVLGNGYTIKTDSITAFKMDKFAPLVYASNVVVPGIALNETSQCLPNSLKPELVSGKVVLCLRGAGSRIGKGMEVKRAGGAGMILGNIAANGNEVPSDSHFVPTAGVTPTVVDKILEYIKTDKNPKAFIKPGKTVYKYQAAPSMTGFSSRGPNVVDPNILKPDITAPGLYILAAWSGADSPSKMSVDQRVAGYNIYSGTSMSCPHVAGAIALLKAIHPKWSSAAIRSALMTTAWMTNDKKKPIQDTTGLPANPFALGSGHFRPTKAADPGLVYDASYRAYLLYGCSVNITNIDPTFKCPSKIPPGYNHNYPSIAVPNLKKTVTVKRTVTNVGTGNSTSTYLFSVKPPSGISVKAIPNILSFNRIGQKQRFKIVIKPLKNQVMNATEKGQYQFGWFSWTDKVHVVRSPIAVSLA
protein production: failed

MKRIFSLLEKTWLGAPIQFAWQKTSGNYLAVTGADYIVKIFDRHGQKRSEINLPGNCVAMDWDKDGDVLAVIAEKSSCIYLWDANTNKTSQLDNGMRDQMSFLLWSKVGSFLAVGTVKGNLVIYNHQTSRKIPVLGKHTKRITCGCWNAENLPALGGEDKMITVSNQEGDTIRQTQVRSEPSNMQFFLMKMDDRTSAAESMISVVLGKKTLFFLNLNEPDNPADLEFQQDFGNIVCYNWYGDGRIMIGFSCGHFVVISTHTGELGQEIFQARNHKDNLTSIAVSQTLNKVATCGDNCIKIQDLVDLKDMYVILNLDEENKGLGTLSWTDDGQLLALSTQRGSLHVFLTKLPILGDACSTRIAYLTSLLEVTVANPVEGELPITVSVDVEPNFVAVGLYHLAVGMNNRAWFYVLGENAVKKLKDMEYLGTVASICLHSDYAAALFEGKVQLHLKAKSWMLTKNVRLGFSQQWMISAVSYAMP
protein production: failed

MSEREHWQRVYESKPSDAVSWFQAEATLSLDLIRRIGAPREAAIIDVGGGASTLVDGLLAEGFGDLTVLDLSDAALRVARNRLGARGEEVRWIAGDITGVDLPEATYDVWHDRAVFHFLTTAEARRAYVRQVMKAVRHGGHVIVATFAADGPTECSGLPVMRYDADELHAEFGSAFQLTEHRDEHHVTPAGRVQHFVYCHCLKRLLEHHHHHH
protein production: failed

MMNRVILVGRLTKDPDLRYTPNGVAVATFTLAVNRAFANQQGEREADFINCVIWRKQAENVANYLKKGSLAGVDGRLQTRNYEGQDGKRVYVTEVLAESVQFLEPRNGGGEQRGSFNQQPSGAGFGNQSSNPFGQSSNSGNQGNQGNSGFTKNDDPFSNVGQPIDISDDDLPF
protein production: failed

MFPAQEEADRTVFVGNLEARVREEILYELFLQAGPLTKVTICKDREGKPKSFGFVCFKHPESVSYAIALLNGIRLYGRPINVQYRFGSSRSSEPANQSFESCVKINSHNYRNEEMLVGRSSFPMQYFPINNTSLPQEYFLFQKMQWHVYNPVLQLPYYEMTAPLPNSASVSSSLNHVPDLEAGPSSYKWTHQQPSDSDLYQMTAPLPNSASVSSSLNHVPDLEAGPSSYKWTHQQPSDSDLYQMNKRKRQKQTSDSDSSTDNNRGNECSQKFRKSKKKKRY
protein production: not failed

MSASTGASVIDLYHQAQDYFFVSISQFYRRFGSGLSAYCTGVEASSLNLLMMNVCAVDEPGALAEGVAFLQRTGMPFCVVVPEALVPRVSGQLHQQHLLAADKTTCMVLDLTRHEPRQALAAQAQVRCSDLRLEDWAQPVQSAFESGEGGIEQYLARHRAALSAGRALSHFTLYVEERPVSALTLSLLPGLARLDDIGTVQDCQGQGYATALIQAVLAFARARGARTCVLEASLDGLSIYRKAGFEALFDYRTFCQE
protein production: failed

MRILLVSRPHPEGARDPFTSLLPTGLGYLNAVLRENGFTSSLANLSTASWRQVEELLRRERPAILGISVFTHNRFESLRLAALAKKVDPTCLTIFGGPHATHAFESILVKYREVDGVILGEGEETFLDLARAVERGDRSLTGIVGLAYRKGAKVHSVKRPPVADLDVLPLPALHMNDAWGCDVRRQLEFIITSRGCPAACRFCSSPRFWGKSLRFRSPRAMVDEIRAIRDRYGLIYFSLRDDTFTVRKDRVIDFCRLLLEEKVHILWNCQSRVNAVDEEMLIWMRRAGCECVQYGVESGSEKILAYLGKQITPEQVRRAAKATRRAGISLSIYLISGVPGETDDDLQATLTLISNILPHDGHVAPLAYYPGTALFDEAVREGRVGADLFERERGAALYVRRDPFVARSMETLLRALTRVERKARFGPADFTAQREFLGYCHGTNLGQGEWLEAKGDIGKAEALYREIVERQPENPWGWLALGGLHGSRGDVTRAGKAFERAISLVPAHVPAYLALGDLRLEEGDQRGAKQLYETAKRLNPRDTDVGERLRMVVAERGTKKGDT
protein production: failed

MTPEPDGPEDRLRRFATIWSRAVFPVTSTPLTRPELENRLLPLARRLSEALRARAFDAAEAKAVGAALIDAHCTDPDALSATLDCVDAYLVLYCGTPDASPGDQEALRTRASRLQHAMAAGFAQALRERTLAEQEAISVAALQAQGVVGQALHASEARFRAVFEGAAIGIGIADLEGNILQINGALLRMFGGSEQAVRGRNVTDWTHPDDAPQVWRLYEELVRGEREHYHVEKAFYRPDGTVLWTNLTVSLLRDADGRPEYQLALMEDTTERRLLNLRLRYEATHDALTGLPNRTLFFERLEKALSAGGGQRFGLCYLDLDGFKTINDSLGHAAGDRLLVEVADRLQSCATAPGEMVARLGGDEFVALTTGPDTEREVDELAGRIMNALVTPISIDGRELAVRGSIGIVEGPAGERGPAEVLRSADITMYRAKSAGGNRFELADPEADARAITRHGLTTALPAALDRNEFFIEYQPLVHLGDGSVRGAEALVRWLHPQHGVLGPDRFIPLAEHTGLIVPLGRWVLEQSVRQAREWQERHCAEAAAPLRINVNLSPCQLTHPGLVSDTVDILERSGLEPGALCLEVTESALIGADDDLLKPLRRLAEMGVDIALDDFGTGYSNLANLRRLPVSILKLDRSFTQGMQQYPADPVDLKIVEGIVTLAHSLDLAVTVEGVETGAQAEQLRILGCDTAQGWYYARPGPPERLHELALVDATG
protein production: failed

MREEELNTEKVVAAIANPVENEVRKVWEDVVEKIEQRVAVIEQASHKLLQNKVSEEILSKAKVEAHKLAGSLGMFGSDEGSQIAQEIESLLDNGKKLKASGGKHLGQVVEALHQELENLKSGLEHHHHHH
protein production: not failed

MKTWFKYIKLLLLSVCTFLLVTGCNSNVSKLPSNQTTSNITTNCRVINHEAGKTQICGQPKKVVALSPPVLDMMLALGVQPAGYAEVDLLNSKVFDRPKEQIPYLGDRITSQPMNVGDRGNPSLESLLQLKPDLILGEASYNETEYQILNKIAPTILISHRDGITPAWQQTISIIAQALGREDKVPTVIAEYEQKLSQAKTAIAPIAQHQELLLLAFRGITLTSFTFGAETFAGGLLQDLGFKLVSPESTEYEVALEVLPKFKSDLIVIMPSGNNNIENAKRQWSQNPILQSISAHNTNRIYFIDYQLASRIRGPIAAELFVNQVRQLLS
protein production: failed

SDWLWQTDAHGRLVHVPERFVEVAKLPPSLLIGAPLADVIGMLCPEDGRCAMGVAAKMAQREPMNDLVVHVVIGGTPRLWSLTAKPMFDAAGEFAGYRGVGRDVTERWRAEQAEAENRAKSSFLAMMSHEIRTPMNGVLGLANSLLETK
protein production: failed

MKTKYIIASLGLATLLSFGANAAVHQVNAEQAQNLQPMGTISVSQIGSTPMDMRQEIVAKAEKAGANSYRIIELKEGDNWHATAELYKLEHHHHHH
protein production: failed

— a protein production outcome set (Wang et al. 2014)
